Data: patent publication US20260167699A1 (Chugai, published 2026)

Tests used:
Assay in all cases: SPR (Biacore), as the text refers to Example 3
[1] = target: T1, FcγRIIa H extracellular domain with C-terminal His tag (UniProt P12318 34-217, limits assumed)
T1 construct: extracellular domain; also called 2aH
T1 sequence: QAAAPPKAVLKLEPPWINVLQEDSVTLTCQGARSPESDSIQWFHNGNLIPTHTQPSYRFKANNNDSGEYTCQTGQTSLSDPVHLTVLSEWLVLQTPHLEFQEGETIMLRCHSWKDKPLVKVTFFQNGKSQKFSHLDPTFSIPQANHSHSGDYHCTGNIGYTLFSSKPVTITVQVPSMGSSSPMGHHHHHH

[2] = target: T2, FcγRIIa R extracellular domain with C-terminal His tag (UniProt P12318 34-217, limits assumed)
T2 construct: extracellular domain; also called 2aR
T2 sequence: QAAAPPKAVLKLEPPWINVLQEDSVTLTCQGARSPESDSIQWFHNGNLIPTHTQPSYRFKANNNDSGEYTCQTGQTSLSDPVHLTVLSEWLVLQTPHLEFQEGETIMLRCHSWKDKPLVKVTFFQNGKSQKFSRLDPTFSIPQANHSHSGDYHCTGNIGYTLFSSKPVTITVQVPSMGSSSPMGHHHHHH

[3] = target: T3, FcγRIIb extracellular domain with C-terminal His tag (UniProt P31994 43-217, limits assumed)
T3 construct: extracellular domain; also called 2b
T3 sequence: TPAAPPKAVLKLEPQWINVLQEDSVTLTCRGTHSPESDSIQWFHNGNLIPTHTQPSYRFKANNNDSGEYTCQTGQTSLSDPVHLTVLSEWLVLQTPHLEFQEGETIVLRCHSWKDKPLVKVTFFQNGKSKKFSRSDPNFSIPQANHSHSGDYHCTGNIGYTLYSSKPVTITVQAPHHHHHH

[4] = target: T4, FcγRIa extracellular domain with C-terminal His tag (UniProt P12314 16-292, limits assumed)
T4 construct: extracellular domain; also called 1a
T4 sequence (P12314 other isoform, or with tags, fused parts or gaps limits assumed): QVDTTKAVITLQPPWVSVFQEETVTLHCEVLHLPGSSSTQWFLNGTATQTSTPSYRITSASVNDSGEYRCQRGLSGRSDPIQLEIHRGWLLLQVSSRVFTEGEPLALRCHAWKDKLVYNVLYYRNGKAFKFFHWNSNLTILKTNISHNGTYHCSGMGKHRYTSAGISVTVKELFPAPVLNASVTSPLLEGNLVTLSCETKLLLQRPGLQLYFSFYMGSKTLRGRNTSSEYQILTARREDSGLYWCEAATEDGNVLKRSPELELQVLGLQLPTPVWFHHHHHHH

binding result [1]: binds | binding result [2]: binds | binding result [3]: binds | binding result [4]: binds
B1: GpH7-B3/GpL16-k0 (antibody, human IgG1, kappa)
heavy: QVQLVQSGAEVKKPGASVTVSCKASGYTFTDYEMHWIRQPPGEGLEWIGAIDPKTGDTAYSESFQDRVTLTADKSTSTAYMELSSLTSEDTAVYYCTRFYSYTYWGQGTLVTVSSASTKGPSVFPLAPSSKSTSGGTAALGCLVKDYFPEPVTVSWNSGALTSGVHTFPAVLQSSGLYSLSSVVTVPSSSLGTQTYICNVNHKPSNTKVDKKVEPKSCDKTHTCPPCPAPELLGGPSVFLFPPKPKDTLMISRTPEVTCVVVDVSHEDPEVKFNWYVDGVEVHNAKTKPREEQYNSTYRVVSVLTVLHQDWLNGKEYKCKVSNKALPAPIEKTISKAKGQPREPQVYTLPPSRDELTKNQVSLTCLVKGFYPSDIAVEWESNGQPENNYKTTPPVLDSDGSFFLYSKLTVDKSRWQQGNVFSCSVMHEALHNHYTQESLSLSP
light: DIVMTQSPLSLPVTPGEPASISCQASESLVHSNRNTYLHWYLQKPGQSPQLLIYKVSNRFSGVPDRFSGSGSGTDFTLKISRVEAEDVGVYYCSQNTHVPPTFGQGTKVEIERTVAAPSVFIFPPSDEQLKSGTASVVCLLNNFYPREAKVQWKVDNALQSGNSQESVTEQDSKDSTYSLSSTLTLSKADYEKHKVYACEVTHQGLSSPVTKSFNRGEC
notes: also called HoCon Ab
